Laboratory results reported in patent publication US20220041683A1 (published 2022).
Where no end group is shown, it is not given here.

How the values were obtained:
[1] = molecular target: NRP2-b1b2 (275-595) protein (UniProt O60462); assay: SPR (Biacore 2000), NRP2-b1b2 immobilised on CM5
[2] = molecular target: NRP2-b1b2 (275-595) protein (UniProt O60462); assay: SPR; KD on NRP2-b1b2 divided by KD on NRP1-b1b2
[3] = molecular target: NRP1-b1b2 (273-586) protein (UniProt O14786); assay: SPR (Biacore 2000), NRP1-b1b2 immobilised on CM5
[4] = molecular target: T1, NRP1 displayed on the human umbilical vein endothelial cell (HUVEC) surface (human, UniProt O14786 22-923); assay: confocal microscopy on HUVEC
T1 construct: whole, on cells; Endogenous NRP1 of human cells; also called NRP1 on the HUVEC cell surface
Description: Specifically, 5×10⁴ HUVEC cells were added to each well of a 24-well plate and incubated in 0.5 ml of EGM2 (Endothelial growth medium, Promocell) medium for 24 hours under the conditions of 5% CO₂ and 37° C. […] Next, the medium was removed, and each well was washed with cold PBS. […] The nucleus was stained (blue fluorescence) with DAPI and analyzed by confocal microscopy.

[5] = molecular target: NRP1-b1b2 (273-586) protein (UniProt O14786); assay: ELISA on immobilised NRP1-b1b2, reference Fc-TPP11

NRP2-b1b2 (275-595) protein, sequence (O60462 275-595 limits assumed, form in doubt): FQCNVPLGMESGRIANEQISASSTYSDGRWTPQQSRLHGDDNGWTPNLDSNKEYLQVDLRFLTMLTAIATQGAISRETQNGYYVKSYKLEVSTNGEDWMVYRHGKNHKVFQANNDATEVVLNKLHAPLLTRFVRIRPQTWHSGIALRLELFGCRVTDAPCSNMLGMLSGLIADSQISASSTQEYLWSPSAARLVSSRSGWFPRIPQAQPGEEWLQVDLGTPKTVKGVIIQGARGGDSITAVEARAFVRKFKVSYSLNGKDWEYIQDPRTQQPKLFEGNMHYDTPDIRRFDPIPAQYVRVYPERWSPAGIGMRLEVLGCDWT

| Binder | Kd [1] | Binding Affinity Ratio [(KD for NRP2)/KD for NRP1)] [2] | Kd [3] | binding result [4] | fold lower affinity than Fc-TPP11 [5] |
| --- | --- | --- | --- | --- | --- |
| HTPGNSNKWKHLQENKKGRPRR (Fc fusion, not shown: a dimerising Fc or GST; small tags and cut ends, not fully specified (N-terminus); also: fused C-terminal to Fc (hinge-CH2-CH3), isotype and sequence not given here, linker not given here) [Fc-A22p] | 62 nM | 0.98 |  |  |  |
| GGGGSGGGGSGGGGSHTPGIATRTPR (Fc fusion, not shown: a dimerising Fc or GST; small tags and cut ends, not fully specified (N-terminus); also: Fc fusion, Fc not in chain, disulfide-linked Fc dimer) [Fc-TPP8] | 254 nM | 65.8 | 3.85 nM |  |  |

Second part, the binder after the results:

| Kd [1] | Binding Affinity Ratio [(KD for NRP2)/KD for NRP1)] [2] | Kd [3] | binding result [4] | fold lower affinity than Fc-TPP11 [5] | Binder |
| --- | --- | --- | --- | --- | --- |
| 1130 nM | 625 | 1.81 nM | binds |  | GGGGSGGGGSGGGGSHTPGNSNQFVLTSTRPPR (Fc fusion, not fully specified (N-terminus); also: Fc fusion, peptide at end of CH3, Fc not in chain, disulfide-linked Fc dimer, Disulfide-linked dimer, peptide fused to the end of CH3 by a (G4S)3 linker; expressed in HEK293-F; also called Fc-TPP1 fusion protein; Fc-TPP1 protein; not shown: Antibody heavy-chain constant region Fc (hinge-CH2-CH3)) [Fc-TPP1] |
|  |  |  |  | 100 fold | HTPGNSKPTRTPRR (also: biotinylated for ELISA, position not given here) [synthetic peptide TPP11 not fused to Fc] |
